From patent US20040180417

T1: 20 aa synthetic peptide spanning the β-secretase cleavage site of βAPPSW
T1 chain: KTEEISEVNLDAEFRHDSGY

T2: PC cleavage site-spanning peptide of proBACE
T2 chain: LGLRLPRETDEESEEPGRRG

B1: [proBACES]FG/V5, doubly tagged soluble form of mouse proBACE (protein)
chain: DYKDDDDKQGTHLGIRLPLRSGLAGPPLGLRLPRETDEESEEPGRRGSFVEMVDNLRGKSGQGYYVEMTRGQPLTKLNILVDTGSSNFAVGAAPHPFLHRYYQRQLSSTYRDLRKGVYVPYTQGKWEGELGTDLVSIPHGPNVTVRANIAAITESDKFFINGSNWEGILGLAYAEIARPDDSLEPFFDSLVKQTHIPNIFSLQLCGAGFPLNQTEALASVGGSMIIGGIDHSLYTGSLWYTPIRREWYYEVIIVRVEINGQDLKMDCKEYNYDKSIVDSGTTNLRLPKKVFEAAVKSIKAASSTEKFPDGFWLGEQLVCWQAGTTPWNIFPVISLYLMGEVTNQSFRITILPQQYLRPVEDVATSQDDCYKFAVSQSSTGTVMGAVIMEGFYVVFDRARKRIGFAVSACHVHDEFRTAAVEGPFVTADMEDCGYNIPQTDESTGKPIPNPLLGLDST
B2: [BACES]V5, soluble mouse BACE ending at Thr454 followed by a V5 epitope (protein)
chain: THLGIRLPLRSGLAGPPLGLRLPRETDEESEEPGRRGSFVEMVDNLRGKSGQGYYVEMTRGQPLTKLNILVDTGSSNFAVGAAPHPFLHRYYQRQLSSTYRDLRKGVYVPYTQGKWEGELGTDLVSIPHGPNVTVRANIAAITESDKFFINGSNWEGILGLAYAEIARPDDSLEPFFDSLVKQTHIPNIFSLQLCGAGFPLNQTEALASVGGSMIIGGIDHSLYTGSLWYTPIRREWYYEVIIVRVEINGQDLKMDCKEYNYDKSIVDSGTTNLRLPKKVFEAAVKSIKAASSTEKFPDGFWLGEQLVCWQAGTTPWNIFPVISLYLMGEVTNQSFRITILPQQYLRPVEDVATSQDDCYKFAVSQSSTGTVMGAVIMEGFYVVFDRARKRIGFAVSACHVHDEFRTAAVEGPFVTADMEDCGYNIPQTDESTGKPIPNPLLGLDST
B3: PACE4 (protein)
chain: QVRSDPQALYFNDPIWSNMWYLHCGDKNSRCRSEMNVQAAWKRGYTGKNVVVTILDDGIERNHPDLAPNYDSYASYDVNGNDYDPSPRYDASNENKHGTRCAGEVAASANNSYCIVGIAYNAKIGGIRMLDGDVTDVVEAKSLGIRPNYIDIYSASWGPDDDGKTVDGPGRLAKQAFEYGIKKGRQGLGSIFVWASGNGGREGDYCSCDGYTNSIYTISVSSATENGYKPWYLEECASTLATTYSSGAFYERKIVTTDLRQRCTDGHTGTSVSAPMVAGIIALALEANSQLTWRDVQHLLVKTSRPAHLKASDWKVNGAGHKVSHFYGFGLVDAEALVVEAKKWTAVPSQHMCVAASDKRPRSIPLVQVLRTTALTSACAEHSDQRVVYLEHVVVRTSISHPRRGDLQIYLVSPSGTKSQLLAKRLLDLSNEGFTNWEFMTVHCWGEKAEGQWTLEIQDLPSQVRNPEKQGKLKEWSLILYGTAEHPYHTFSAHQSRSRMLELSAPELEPPKAALSPSQVEVPEDEEDYTAQSTPGSANILQTSVCHPECGDKGCDGPNADQCLNCVHFSLGSVKTSRKCVSVCPLGYFGDTAARRCRRCHKGCETCSSRAATQCLSCRRGFYHHQEMNTCVTLCPAGFYADESQKNCLKCHPSCKKCVDEPEKCTVCKEGFSLARGSCIPDCEPGTYFDSELIRCGECHHTCGTCVGPGREECIHCAKNFHFHDWKCVPACGEGFYPEEMPGLPHKVCRRCDENCLSCAGSSRNCSRCKTGFTQLGTSCITNHTCSNADETFCEMVKSNRLCERKLFIQFCCRTCLLAG
B4: rat PC7 (protein)
chain: SIHFNDPKYPQQWHLNNRRSPGRDINVTGVWERNVTGRGVTVVVVDDGVEHTVQDIAPNYSPEGSYDLNSNDPDPMPHPDEENGNHHGTRCAGEIAAVPNNSFCAVGVAYGSRIAGIRVLDGPLTDSMEAVAFNKHYQINDIYSCSWGPDDDGKTVDGPHQLGKAALQHGVMAGRQGFGSIFVVASGNGGQHNDNCNYDGYANSIYTVTIGAVDEEGRMPFYAEECASMLAVTFSGGDKMLRSIVTTDWDLQKGTGCTEGHTGTSAAAPLAAGMIALMLQVRPCLTWRDVQHIIVFTATQYEDHRADWLTNEAGFSHSHQHGFGLLNAWRLVNAAKIWTSVPYLASYVSPMLKENKAVPRSPHSLEVLWNVSRTDLEMSGLKTLEHVAVTVSITHPRRGSLELKLFCPSGMMSLIGAPRSMDSDPNGFNDWTFSTVRCWGERARGVYRLVIRDVGDEPLQVGILQQWQLTLYGSTWSPVDIKDRQSLLESAMSGKYLHDDFTLPCPPGLKIPEEDGYSITPNTLKT
B5: mouse PC5-A (protein)
chain: DYDLSHAQSTYFNDPKWPSMWYMHCSDNTHPCQSDMNIEGAWKRGYTGKNIVVTILDDGIERTHPDLMQNYDALASCDVNGNDLDPMPRYDASNENKHGTRCAGEVAATANNSHCTVGIAFNAKIGGVRMLDGDVTDMVEAKSVSYNPQHVHIYSASWGPDDDGKTVDGPAPLTRQAFENGVRMGRRGLGSVFVWASGNGGRSKDHCSCDGYTNSIYTISISSTAESGKKPWYLEECSSTLATTYSSGESYDKKIITTDLRQRCTDNHTGTSASAPMAAGIIALALEANPFLTWRDVQHVIVRTSRAGHLNANDWKTNAAGFKVSHLYGFGLMDAEAMVMEAEKWTTVPQQHVCVESTDRQIKTIRPNSAVRSIYKASGCSDNPNHHVNYLEHVVVRITITHPRRGDLAIYLTSPSGTRSQLLANRLFDHSMEGFKNWEFMTIHCWGERAAGDWVLEVYDTPSQLRNFKTPGKLKEWSLVLYGTSVQPYSPTNEFPKVERFRYSRVEDPTDDYGAEDYAGPCDPECSEVGCDGPGPDHCSDCLHYYYKLKNNTRICVSSCPPGHYHADKKRCRKCAPNCESCFGSHGNQCLSCKYGYFLNEETSSCVTQCPDGSYEDIKKNVCGKCSENCKACIGFHNCTECKGGLSLQGSRCSVTCEDGQFFNGHDCQPCHRFCATCSGAGADGCINCTEGYVMEEGRCVQSCSVSYYLDHSSEGGYKSCKRCDNSCLTCNGPGFKNCSSCPSGYLLDLGTCQMGAICKDATEESWAEGGFCMLVKKNNLCQRKVLQQLCCKTCTFQG

Columns and labels:
[1] = biological target: T1, 20 aa synthetic peptide spanning the …
[2] = biological target: T2, PC cleavage site-spanning peptide of …
[3] = biological target: [proBACES]FG/V5, doubly tagged soluble form of mouse proBACE

Protein	β-secretase activity of affinity-purified proBACE on the synthetic peptide substrate [1]	cleavage of the peptide spanning the N-terminal furin-consensus site [2]	in vitro processing of the R45A mutant of proBACES, Western blot ([proBACES-R45A]FG/V5)	in vitro processing of proBACE into BACE, Western blot with FG or V5 antibodies [3]	cleavage of the peptide spanning the N-terminal furin-consensus site, RP-HPLC and MALDI-TOF [2]
B1	the resulting material had no detectable activity unless first pre-incubated with furin				
B2		no detectable cleavage of this peptide was observed by either crude or partially purified soluble BACE [BACES]V5 (not shown)			
B3			none of the PCs tested could cleave this form	which was superior to the abilities of PC5 and PACE4 to carry out this cleavage	
B4			none of the PCs tested could cleave this form	PC7 is barely, if at all, able to perform this reaction	PC7 could barely cleave this sequence, even when a 10-fold excess (as assessed by pERTKR-MCA hydrolysis) of activity was employed
B5			none of the PCs tested could cleave this form	which was superior to the abilities of PC5 and PACE4 to carry out this cleavage	The best processing rates were observed with furin and PC5 (not shown)
